According to the DeepSol protein solubility set:

Test: soluble on expression in E. coli; label from the status in PepcDB or PDB records
In the case of “MKKERKPKIVIMGGGTGLSVLLRGLKQYPVDITAVVTIADDGGSSGRLRDELEIPPPGDIRNVLVALSDVEPLVEALFQHRFTTGDGLKGHALGNLLLAGMTSITGDFFHAITETSKVLNVRGRVLPAANQSAVLHAELEDGEIVTGESKIPYYGKKINRVFLTPEDVEPLHETLAEIKRADLLVFGPGSLYTSILPNLVVNKIGDAVLAAKAKKVYVCNVMTQAGETMGYTAFDHVQALHDHLGQPFINTAIVNNREIPCELRKSYEEEMSTPVVVDEERFVENNIDVIQEGLAKYDDHVVRHDTLKLASILYSLLMAGDPLEHHHHHH”, the “soluble on expression in E. coli” value is reported as “soluble”.
In the case of “MGSDKIHHHHHHMTDKLLKQHKRLLEQQHKLPYTINLSGEVFTIIIYTKLSKVAGVTVLNSQEEPATVKEAEAVVNRIQKYNFYFEYLGKRAHVIKERDSIIAEKIEQTQLILNDNTIFGEKMQPTIDELNLAMEVYKQQQRKMDVYQEDITLLNQKIKMQGEILEEDWESAENLSIAFAKAAYAQSIYLEATRKNRKQLAKWFHLHQKELPTDKQKALSKMVSVLSDTNAGLVFDQIISLRPLLEEGLMLDHEQSLTQRAAEFNKEFETHCRFYKPNINKVKNLIRQ”, the “soluble on expression in E. coli” value is reported as “not soluble”.
In the case of “MSLRTGKTNVIALVLSVDEELMGFTSQMVFGITEVLSTTQYHLVVTPHIHAKDSMVPIRYILETGSADGVIISKIEPNDPRVRFMTERNMPFVTHGRSDMGIEHAFHDFDNEAYAYEAVERLAQCGRKRIAVIVPPSRFSFHDHARKGFNRGIRDFGLTEFPIDAVTIETPLEKIRDFGQRLMQSSDRPDGIVSISGSSTIALVAGFEAAGVKIGEDVDIVSKQSAEFLNWIKPQIHTVNEDIKLAGRELAKALLARINGEAAETLQSISGPVWSSMAPKEGHHHHHH”, the “soluble on expression in E. coli” value is reported as “soluble”.
In the case of “CKYEGDAQKRLAIRPFPAEFVETVTLRDGQPILLRPILPEDEPLHAQFINSVSKEDLYKRFFSEVGEFNHEALANFTQIDYDREMAFVAVAFDKSGPSIIGVARALITPDNSDAEFAILVRSDLKGKGLGKILMEKIISYCKIKGTKQMSGMTMPTNRGMLMLAQRLGFEVDVQFADGTADMVLPLN”, the “soluble on expression in E. coli” value is reported as “not soluble”.
In the case of “SLKIRERFSMVDLPVLIITAAIIGHDKYKAFHAGANDILQKPYHYSEFMARIQNLIMMKHTANQATRMEMAFLQSQIKPHFLYNVLNTIISLTHLDIEKAREVTEEFTNYLRMSFDFQNTSAISSFRHELSIINSYLSIEKTRFSNRLEVLFDIDEDIDFILPPLMIQPLVENAVLHGVSKKRGGGWIKLTAKKQSKNEYHIKVEDNGPGITPEKQIDLLSTDFDRSVGLKNINQRLKHFCGSELMISSTPDAGTSVSMLIHLAETTGSPKELKDTERT”, the “soluble on expression in E. coli” value is reported as “soluble”.
With “MQGDPDVLRLLNEQLTSELTAINQYFLHSKMQDNWGFTELAAHTRAESFDEMRHAEEITDRILLLDGLPNYQRIGSLRIGQTLREQFEADLAIEYDVLNRLKPGIVMCREKQDTTSAVLLEKIVADEEEHIDYLETQLELMDKLGEELYSAQCVSRPPT” the “soluble on expression in E. coli” value was “not soluble”.
With “MALPRITQKEMTEREQRELKTLLDRARIAHGRVLTNSETNSIKKDYIDKLMVEREAEAKKARQLKKKQAYKPDPEASFSWSANTSTRGRR” the “soluble on expression in E. coli” value was “soluble”.
For “RPKLTDGVQSGDVQGDRALVWSRTDRPARMIVEWDTRSVFSEPRRLVSPVTDERLDYTARIDLRGLPADQSIFYRVRFEDARDGSLSKPWFGHLRSAPSEARNIRFVWSGDTCGQGFGINPDIGGMRIYEAMRRRQPDFFLHSGDTIYADGPIPERIETESGRIWRNRVTEAKSKVAETLDEFRGNYRYNLLDDNLRRFNAEVPQIWQWDDHETTNNWSSSKQLDERYQVKDIDVLAARARQAFLEYAPLRFQRQGRDGRIYRKVAYGPLLDVFVLDMRSYRGGNSANLQARRSAATDFLGREQLQWLKRELRGSRAQWKVIAADMPIGLCVPDGKDAQGRDRWEAIANGNDGAALGRELEIADLLRFVQRAGVRNTVWLTADVHYCAAHHYSPERAAFKDFAPFWEFVAGPLNAGSFGPNALDGTFGPQVMFQKAPLVQNSSPFAGYQFFGEVEIDAQSRALTVTLRDLDGEPVFSQELQPD”, the “soluble on expression in E. coli” value was “not soluble”.
With “MGSDKIHHHHHHMGGNSLSKELYDWLGYSSETATASAFVQQRDKIRPEALKLLFHEFTRLTVSENSLQDYRLLAVDGSDLRLPSNSKDGFSSIRNSEDSKNYNLVHLDAMYDLMGKVYVDASVQSKKGMNEHKALVSMVDQSEINGNVIAIMDRGYESFNNIAHFQEKSWYYIIRAKESYGIISRLSLPDYPEYDEEIMLTLTRRQTKETLPLLKAYPHRYRWIQPHTTFDFIKPKDSKFYDLHFRAVRFAIADGVYETVYTNLNAEDFPPEKLKQLYNLRWGIETSFKELKYAVGLASLHSKKKDFILQEIFARLILYNYSSIIMHHISISEDLRVNFPVALNICRQFLRELIPAVQVLKLIGKHLSPIRPGRQFPRHQNPISAVGFQYRII” the “soluble on expression in E. coli” value was “not soluble”.
In the case of “MNRFIMANSQQCLGCHACEVACVMAHNDERHVLTSQRYQPRITVIKHQHQRSAVTCHHCEDAPCARSCPNGAIAHINDSVQVNAQKCIGCKSCVVACPFGTMQMVLTPVAPNQFKASAHKCDLCQGREQGPACVENCPADALQLVTEDSLTRLAKTRRLRTARQEIRPWHTVDTQHSGAASSKAERMQATPPRGEPDKLAIEARKTTFEEIYLPFRAAQAEREASRCLTCGEHSICEWTCPLHNHIPQWIELVKAGDIDAAVELSHQTNCLPEITGRVCPQDRLCEGACTLRDEYGAVTIGNIERYISDRALSKGWRPDLSDVQKSDKRVAIIGAGPAGLACADVLARHGVSATVYDRHPEIGGLLTFGIPAFKLDKSLLARRREIFSAMGIRFELNCEVGKDISLETLLESYDAVFVGVGTYRSMKADLPNEDAPGVYDALPFLIANTKQVMGLPALPDEPFIDTAGLNVVVLGGGDTAMDCVRTALRHGAANVTCAYRRDEANMPGSKKEVKNAREEGANFEFNVQPVELVLDTHGRASGIRFLRTRLGEPDGQGRRRPVPVPDSEFVMPADAVIMAFGFHPHGMSWLESHGVKVDNWGRIAASVESEFRYQTSNPKIFAGGDAVRGADLVVTAMAEGRHAAQGILDWLAK”, the “soluble on expression in E. coli” value is reported as “not soluble”.
For “GKSTTLFSRHTKAIVWGMQTRAVQGMLDFDYVCSRDEPSVAAMVYPFTGDHKQKFYWGHKEILIPVFKNMADAMRKHPEVDVLINFASLRSAYDSTMETMNYAQIRTIAIIAEGIPEALTRKLIKKADQKGVTIIGPATVGGIKPGCFKIGNTGGMLDNILASKLYRPGSVAYVSRSGGMSNELNNIISRTTDGVYEGVAIGGDRYPGSTFMDHVLRYQDTPGVKMIVVLGEIGGTEEYKICRGIKEGRLTKPIVCWCIGTCATMFSSEVQFGHAGACANQASETAVAKNQALKEAGVFVPRSFDELGEIIQSVYEDLVANGVIVPAQEVPPPTV”, the “soluble on expression in E. coli” value was “soluble”.
In the case of “MKLSIVIVNYRVPYFLEQCLLSVRKSAQGIDTEVWVVDNNSGDGSVEYLQSRFPEVHFVANEENVGFSRANNQAIRLSKGQYVLLLNPDTLIGESTLRTVVDFMDSKPNAGGLGVKMLNGHGRFLPESKRGFPSPWVSFCKLSGLNRLFPHSSRFNRYHLSYLSRDEVHKVEVLSGAFMLMRREALDKVGLLDERFFMYGEDIDLSYRLILGGYDNYYYPTPILHYKGESSSVSDVKYLRSFYGAMGLFFDKYYRNRMNPLLHGLINVVIKARTALALMLRSLRKVPAAEKPAKIFYWHPSEGEAAISAYHDRSHILINTDEVTCDRLLLTMEKLADRKHTFHLTNDTTKRVISP”, the “soluble on expression in E. coli” value is reported as “not soluble”.
For “MVKSLQLAHQLKDKRILLIGGGEVGLTRLYKLMPTGCKLTLVSPDLHKSIIPKFGKFIQNKDQPDYREDAKRFINPNWDPTKNEIYEYIRSDFKDEYLDLENENDAWYIIMTCIPDHPESARIYHLCKERFGKQQLVNVADKPDLCDFYFGANLEIGDRLQILISTNGLSPRFGALVRDEIRNLFTQMGDLALEDAVVKLGELRRGIRLLAPDDKDVKYRMDWARRCTDLFGIQHCHNIDVKRLLDLFKVMFQEQNCSLQFPPRERLLSEYCSS”, the “soluble on expression in E. coli” value was “soluble”.
With “MHHHHHHAMGTKKSAAEASKKPRQKRTATKQYNVTQAFGRRGPEQTQGNFGDQDLIRQGTDYKHWPQIAQFAPSASAFFGMSRIGMEVTPSGTWLTYHGAIKLDDKDPQFKDNVILLNKHIDAYKTFP” the “soluble on expression in E. coli” value was “soluble”.
With “MGSDKIHHHHHHMVEEQHVTQYGSLLKPCMSRLENLLVHQYVECWLYWSCYETETDTRIRGIWQFMFEQELKHLHIALELLRQYEKKDWQEVIPDAEFPAPLVLESNIEYVRCVLGSTVNDTACRERYVDVRNNAPETFIRYQRMVNDPVRNVMSHTFIEDYIRKNGEDYRFEVAPNPVPELRDRTKDNICVGRQPLCRNRY” the “soluble on expression in E. coli” value was “not soluble”.
With “MKWPWWPVCVPLSKRLTLPLPSTANPVVQPSRLALACANRLFEAADNRERFLQALMTPPAYPATVLWCGEPAAALPFAALPPLPWQPPWVSRFVAGSPTGQHPLHAAGAYYCLDSSSVFAAVPLLTLPQEPSLVIDVCAAPGGKSLFAWRSLHPRYLICNETIGKRVGKLIGNLKRCRVHPVGVTSWDSEVLAAEFQGTADVVIVDAPCSGQSLLAKGQKAEGCFHPLTIRHNQRRQKRILAAATTLVRPGGWLLYSTCTFSQDENEDVAAWLMAKFPHLLPQPVPALAAYQSHLAAFPCYRLWPHQGEGAGAFTILWQHQGLEHHHHHH” the “soluble on expression in E. coli” value was “soluble”.
With “MARFALVLHAHLPYVRAHGMWPFGEETLYEAMAETYLPLIRVLERLRAEGVEAPFTLGITPILAEQLADARIKEGFWAYAKDRLERAQGDYQRYRGTALEASARHQVAFWELTLDHFQRLSGDLVAAFRKAEEGGQVELITSNATHGYSPLLGYDEALWAQIKTGVSTYRRHFAKDPTGFWLPEMAYRPKGPWKPPVEGPPEGVRPGVDELLMRAGIRYTFVDAHLVQGGEPLSPYGEAALGPVESQEATYHVHELESGLRVLARNPETTLQVWSADYGYPGEGLYREFHRKDPLSGLHHWRVTHRKADLAEKAPYDPEAAFAKTEEHARHFVGLLERLAGRHPEGVILSPYDAELFGHWWYEGVAWLEAVLRLLAQNPKVRPVTAREAVQGPAVRTALPEGSWGRGGDHRVWLNEKTLDYWEKVYRAEGAMREAARRGVLPEGVLRQAMRELLLLEASDWPFLMETGQAEAYARERYEEHARAFFHLLKGASPEELRALEERDNPFPEADPRLYLFREA” the “soluble on expression in E. coli” value was “soluble”.
For “MGSDKIHHHHHHMMVLEQPLKSFFTSLSQSKSMNKLAKKWGLKLGASQVVAGVTISEAIEKVKELNEKGLSATLDHLGEFVEERTEAIEATDHCIQTLEQIASSGVNCNLSLKLTQLGLDIDQSFCLENMERIIKKAAELGIFVRIDMEDYGHCQQTLDILAELRKTYDNVGTVIQAYLFRALDDVRALEGIPLRLVKGAYKESPEVAYQEKEKIDENYFNMIKLHLDSGTYTAIASHDHQIIDRVKAYVKEKGISHSQFEFQMLYGFRTNLQEELVKEGYNVRIYVPFGIDWFGYFMRRLAERPQNVAFALRGFFSK”, the “soluble on expression in E. coli” value was “not soluble”.
In the case of “TDAPANQGFIIGVTGCPAGVAHTYLAAEALEKGAAAMGYEIKVETNGSIGVKNSPTAEEIERADAIIVACDKQVDMNRFAGKRVVKTNVKAPIRDAQGLINEALNAPTY”, the “soluble on expression in E. coli” value is reported as “not soluble”.
With “MGSDKIHHHHHHMKLYELAMTPSARRVNIFLKELGLNEQELGLERESLNLRAGDNLSDEFKAISVNGRIPVLELDDGQTLCESVAICRYFDEIITSAHSLFGDTPLEKAQVEMWQRICELQGLFVAFQAFRNITKVYEDRERCVEAWGQESRQRVIEFLPTLEKQLGQQPFVAGQNFSIADITAYVMMSFIKHLEITPSDDQPHLTAWLTKMEQRPSIIAVNG” the “soluble on expression in E. coli” value was “not soluble”.
In the case of “MTTRDLFADHAPADDRRIALGEAAVVLRGFALAEATALLAAIDDIARQAPFRHMVTPGGFEMSVALTNCGALGWTSDRRGYRYAARDPQTGQPWPPLPDCFLRLARDAAAAAGFPGFTPDACLINRYVPGARLSLHQDKDEQDYGAPIVSVSLGMPAMFLWGGHRRTDKTLRVPLFHGDVVVWGGPDRLRYHGVLPLKEAAHPLLGAQRINLTLRRAGLEHHHHHH”, the “soluble on expression in E. coli” value is reported as “soluble”.
